Test results taken from patent US20250333508A1.

Key:
[1] = biological target: human CTLA-4 his tag antigen (human) (UniProt P16410); test: ELISA on coated human CTLA-4 his tag protein, goat anti-human IgG-Fc HRP; unit from the axis; the isotype curve is flat at OD450 0, so the number comes from a fit of a flat line
[2] = biological target: murine CTLA-4. his tag protein (murine) (UniProt P09793); test: ELISA on coated mouse CTLA-4 his tag protein, goat anti-human IgG-Fc HRP; unit from the axis; the isotype curve is flat at OD450 0, so the number comes from a fit of a flat line
UniProt P09793, sequence (P09793 36-161 limits assumed): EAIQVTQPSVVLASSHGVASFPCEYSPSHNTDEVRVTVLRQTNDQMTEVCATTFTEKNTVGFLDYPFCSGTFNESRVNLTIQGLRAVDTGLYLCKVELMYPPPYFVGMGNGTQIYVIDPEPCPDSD

[3] = biological target: cynomolgus monkey CTLA-4. his tag protein (cynomolgus monkey) (UniProt G7PL88); test: ELISA on coated cynomolgus monkey CTLA-4 his tag protein, goat anti-human IgG-Fc HRP; unit from the axis; the isotype curve is flat at OD450 0, so the number comes from a fit of a flat line
UniProt G7PL88, sequence (G7PL88 entry or part of it limits assumed): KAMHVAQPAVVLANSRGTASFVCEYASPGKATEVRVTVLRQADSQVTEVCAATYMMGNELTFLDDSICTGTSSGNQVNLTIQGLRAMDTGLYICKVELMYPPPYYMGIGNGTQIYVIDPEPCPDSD

UniProt P16410, sequence (P16410 36-161 limits assumed): as the sequence (G7PL88 entry or part of it limits assumed) above, with N14S, T18I, M106L counted along it

EC50 [1]: 5.74 nM | EC50 [2]: 5.74 nM | EC50 [3]: 5.74 nM
Substance: Isotype (antibody)
